US20020004226A1

Target: soluble LDL receptor from the supernatant of IFN-gamma-treated human WISH cells (antiviral factor) (human) (UniProt P01130)
Test: immunoaffinity chromatography on agarose-coupled C7; antiviral activity recovered in the pH 11 eluate (el.2 and el.3) relative to the load

UniProt P01130, sequence (P01130 25-313 limits assumed): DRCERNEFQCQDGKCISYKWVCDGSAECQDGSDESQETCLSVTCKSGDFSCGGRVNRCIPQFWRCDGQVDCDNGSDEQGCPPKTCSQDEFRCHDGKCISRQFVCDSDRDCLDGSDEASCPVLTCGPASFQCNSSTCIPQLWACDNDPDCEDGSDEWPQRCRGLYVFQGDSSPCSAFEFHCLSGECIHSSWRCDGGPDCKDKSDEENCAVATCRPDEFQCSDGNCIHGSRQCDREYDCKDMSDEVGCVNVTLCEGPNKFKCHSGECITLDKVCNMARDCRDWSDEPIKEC

recovery: 32%
Substance: monoclonal antibody C7 (hybridoma C7, ATCC CRL 1691)
